Positions count from the first letter of the chain named. Like-named read-outs stand apart in the source and are kept apart here.
Columns and labels:
[1] = molecular target: T1, mouse DLL4, full length, overexpressed on CHO or HEK293 cells (mouse, UniProt Q9JI71 27-686); experiment: FMAT competition: labelled hNotch1-Fc on CHO-mDLL4 cells
T1 construct: whole, on cells; also called CHO-mDLL4; CHO-mDII4
Description: (§1) All calculations are based on the FL1_total signal which comprises the average of the fluorescence per well times the number of counts per well.

[2] = molecular target: T2, human DLL4, full length, overexpressed on CHO or HEK293 cells (human, UniProt Q9NR61 27-685); experiment: FMAT competition: labelled hNotch1-Fc on CHO-hDLL4 cells
T2 construct: also called CHO-hDLL4; CHO-hDII4
Description: as §1

[3] = molecular target: T3, cynomolgus Ang2 (cynomolgus); experiment: competition ELISA: cAng2 binding to cTie2
T3 construct: also called cAng2; cyno Ang2
Description: (§2) This assay is also performed after incubation of the VHH with 0.5 μM human serum albumin.

[4] = molecular target: T3, cynomolgus Ang2; experiment: competition ELISA: cAng2 binding to cTie2; remark: listed apart in the source
Description: as §2

[5] = molecular target: T4, mouse Ang2 (mouse, UniProt O35608 19-496, limits assumed); experiment: competition ELISA: mAng2 binding to mTie2
T4 construct: also called mAng2
T4 sequence (looked up): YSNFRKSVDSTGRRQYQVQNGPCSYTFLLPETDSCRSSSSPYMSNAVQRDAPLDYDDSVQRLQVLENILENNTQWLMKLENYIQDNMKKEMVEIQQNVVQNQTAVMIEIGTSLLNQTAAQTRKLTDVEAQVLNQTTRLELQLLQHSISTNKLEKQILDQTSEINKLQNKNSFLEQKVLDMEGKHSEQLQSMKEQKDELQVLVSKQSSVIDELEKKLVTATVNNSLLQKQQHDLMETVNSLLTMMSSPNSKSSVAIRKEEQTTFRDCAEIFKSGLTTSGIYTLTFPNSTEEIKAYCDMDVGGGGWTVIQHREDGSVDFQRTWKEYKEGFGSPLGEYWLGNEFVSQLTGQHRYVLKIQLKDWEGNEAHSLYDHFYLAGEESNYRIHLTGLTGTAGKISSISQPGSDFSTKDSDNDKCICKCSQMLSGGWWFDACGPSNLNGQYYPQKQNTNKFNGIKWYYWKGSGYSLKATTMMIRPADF
Description: as §2

[6] = molecular target: T4, mouse Ang2; experiment: competition ELISA: mAng2 binding to mTie2; remark: listed apart in the source
Description: as §2

[7] = molecular target: T4, mouse Ang2; experiment: competition ELISA: mAng2 binding to mTie2; remark: listed apart in the source
[8] = molecular target: T3, cynomolgus Ang2; experiment: competition ELISA: cAng2 binding to cTie2; remark: listed apart in the source
[9] = molecular target: T5, human Ang2 (human, UniProt O15123 19-496, limits assumed); experiment: competition ELISA: hAng2 binding to hTie2
T5 construct: also called hAng2; human Angiopoietin2
T5 sequence (looked up): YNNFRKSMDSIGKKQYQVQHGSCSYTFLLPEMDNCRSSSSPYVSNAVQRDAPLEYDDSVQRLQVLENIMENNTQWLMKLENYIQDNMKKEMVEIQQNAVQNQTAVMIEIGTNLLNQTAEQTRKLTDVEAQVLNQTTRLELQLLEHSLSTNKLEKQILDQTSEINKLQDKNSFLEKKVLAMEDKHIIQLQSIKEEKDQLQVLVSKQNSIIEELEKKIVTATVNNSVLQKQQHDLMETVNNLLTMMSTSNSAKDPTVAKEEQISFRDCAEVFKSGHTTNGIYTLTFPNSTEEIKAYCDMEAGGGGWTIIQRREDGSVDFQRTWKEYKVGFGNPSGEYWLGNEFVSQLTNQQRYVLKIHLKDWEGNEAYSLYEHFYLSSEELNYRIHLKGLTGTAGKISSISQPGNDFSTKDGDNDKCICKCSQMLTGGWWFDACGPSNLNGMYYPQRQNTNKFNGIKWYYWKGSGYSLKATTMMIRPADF

[10] = molecular target: T6, cynomolgus DLL4, full length, overexpressed on cells (cynomolgus, UniProt Q9NR61 27-685 (human entry)); experiment: FACS titration on HEK293-cDLL4 cells
T6 construct: also called CHO-cDLL4; cDLL4
T6 chain: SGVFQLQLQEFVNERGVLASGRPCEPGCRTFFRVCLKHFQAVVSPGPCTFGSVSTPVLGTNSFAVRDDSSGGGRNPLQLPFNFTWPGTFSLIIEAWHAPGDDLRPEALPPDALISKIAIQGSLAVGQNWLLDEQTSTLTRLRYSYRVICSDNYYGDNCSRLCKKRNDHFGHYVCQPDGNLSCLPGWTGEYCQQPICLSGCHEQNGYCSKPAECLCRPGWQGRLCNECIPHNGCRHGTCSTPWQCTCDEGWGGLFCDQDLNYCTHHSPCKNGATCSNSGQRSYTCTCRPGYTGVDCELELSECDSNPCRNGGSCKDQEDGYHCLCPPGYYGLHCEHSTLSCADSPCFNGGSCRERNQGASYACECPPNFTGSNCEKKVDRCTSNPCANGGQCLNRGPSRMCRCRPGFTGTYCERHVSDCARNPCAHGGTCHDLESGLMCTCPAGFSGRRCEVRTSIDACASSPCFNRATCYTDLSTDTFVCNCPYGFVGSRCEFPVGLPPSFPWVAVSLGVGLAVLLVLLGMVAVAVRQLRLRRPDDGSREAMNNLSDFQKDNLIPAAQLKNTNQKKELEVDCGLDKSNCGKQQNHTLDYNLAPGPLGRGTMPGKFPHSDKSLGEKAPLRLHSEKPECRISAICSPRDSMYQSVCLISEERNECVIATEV
Description: (§3) In order to determine the cynomologus cross-reactivity of the VHHs, a FACS binding experiment is performed. Cynomolgus DII4 expressing HEK293 cells (transient or stable transfection) are used for a titration binding experiment of the VHHs. After a 30 minutes incubation on ice, all samples are washed and detection is performed by applying anti-c-myc-Alexa647 (Santa Cruz Biotechnology, Santa Cruz, Calif., USA). Human and mouse DII4 overexpressing HEK293 cells are taken as reference. The mean MCF value is determined on the FACS Array and used for calculation of the EC₅₀ value (see FIG. 9).

[11] = molecular target: T2, human DLL4, full length, overexpressed …; experiment: FACS titration on HEK293-hDLL4 cells
Description: as §3

[12] = molecular target: T5, human Ang2; experiment: competition ELISA hAng2/hTie2-Fc, with 0.5 uM HSA [continued]
Description: as §2

[13] = molecular target: T4, mouse Ang2; experiment: competition ELISA mAng2/mTie2
Description: as §2

[14] = molecular target: T5, human Ang2; experiment: competition ELISA hAng2/hTie2-Fc
Description: as §2

[15] = molecular target: T4, mouse Ang2; experiment: competition ELISA: mAng2 binding to mTie2; remark: listed apart in the source
[16] = molecular target: T3, cynomolgus Ang2; experiment: competition ELISA: cAng2 binding to cTie2; remark: listed apart in the source
[17] = molecular target: T5, human Ang2; experiment: competition ELISA: hAng2 binding to hTie2; remark: listed apart in the source
[18] = molecular target: T7, recombinant mouse DLL4 extracellular domain, C-terminally His-tagged (R&D Systems) (mouse, UniProt Q9JI71 27-525); experiment: binding ELISA on coated rmDLL4
T7 construct: range 1-525; also called rmDLL4; mDLL4; not shown: C-terminal His tag
T7 sequence (Q9JI71 27-525 limits assumed): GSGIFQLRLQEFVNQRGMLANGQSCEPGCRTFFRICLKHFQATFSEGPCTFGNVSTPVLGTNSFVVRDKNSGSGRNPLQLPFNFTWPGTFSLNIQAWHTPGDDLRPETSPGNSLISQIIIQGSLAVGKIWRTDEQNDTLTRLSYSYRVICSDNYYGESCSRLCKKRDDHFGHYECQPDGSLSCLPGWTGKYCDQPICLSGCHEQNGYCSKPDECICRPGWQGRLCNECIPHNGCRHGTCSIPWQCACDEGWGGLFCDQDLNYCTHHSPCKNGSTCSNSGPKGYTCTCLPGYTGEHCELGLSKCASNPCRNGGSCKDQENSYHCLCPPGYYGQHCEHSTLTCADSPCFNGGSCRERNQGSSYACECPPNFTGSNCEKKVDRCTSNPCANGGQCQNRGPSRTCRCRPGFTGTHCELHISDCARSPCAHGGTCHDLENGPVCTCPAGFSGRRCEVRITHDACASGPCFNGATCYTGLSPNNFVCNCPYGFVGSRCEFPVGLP
Description: In order to determine cross-reactivity to mouse DII4 a binding ELISA is performed. […] Wells are blocked with a casein solution (1% in PBS). VHHs are applied as dilution series and binding is detected using a mouse anti-myc (Roche) and an anti-mouse-AP conjugate (Sigma, St Louis, Mo., USA) (FIG. 7).

[19] = molecular target: T8, recombinant human DLL1 (Alexis) (human, UniProt O00548 18-545, limits assumed); experiment: rhDLL1/rhJAG1 binding ELISA
T8 construct: also called hDLL1; rhDLL1
T8 sequence (looked up): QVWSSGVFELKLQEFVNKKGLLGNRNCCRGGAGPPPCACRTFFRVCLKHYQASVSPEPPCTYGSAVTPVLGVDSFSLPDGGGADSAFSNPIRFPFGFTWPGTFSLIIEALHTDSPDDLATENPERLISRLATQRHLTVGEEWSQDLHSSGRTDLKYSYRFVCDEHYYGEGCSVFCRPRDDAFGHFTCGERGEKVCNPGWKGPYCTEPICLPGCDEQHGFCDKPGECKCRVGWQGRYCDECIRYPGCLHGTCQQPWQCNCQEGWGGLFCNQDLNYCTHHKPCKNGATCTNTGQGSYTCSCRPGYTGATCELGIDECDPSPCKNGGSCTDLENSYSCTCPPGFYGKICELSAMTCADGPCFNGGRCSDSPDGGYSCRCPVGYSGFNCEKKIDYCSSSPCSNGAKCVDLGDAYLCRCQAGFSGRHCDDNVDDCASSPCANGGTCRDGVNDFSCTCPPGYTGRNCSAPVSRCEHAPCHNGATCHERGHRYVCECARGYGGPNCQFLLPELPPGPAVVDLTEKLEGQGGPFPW

[20] = molecular target: T9, recombinant human Jagged-1 (Alexis) (human, UniProt P78504 34-1067, limits assumed); experiment: rhDLL1/rhJAG1 binding ELISA
T9 construct: also called hJagged-1; hJAG1

[21] = molecular target: T10, recombinant human DLL4 extracellular domain, C-terminally His-tagged (R&D Systems) (human, UniProt Q9NR61 25-522, biotinylated in the competition assays (sites not given)); experiment: binding ELISA on coated rhDLL4
T10 construct: also called rhDLL4; hDLL4; not shown: C-terminal His tag
T10 sequence (Q9NR61 25-522): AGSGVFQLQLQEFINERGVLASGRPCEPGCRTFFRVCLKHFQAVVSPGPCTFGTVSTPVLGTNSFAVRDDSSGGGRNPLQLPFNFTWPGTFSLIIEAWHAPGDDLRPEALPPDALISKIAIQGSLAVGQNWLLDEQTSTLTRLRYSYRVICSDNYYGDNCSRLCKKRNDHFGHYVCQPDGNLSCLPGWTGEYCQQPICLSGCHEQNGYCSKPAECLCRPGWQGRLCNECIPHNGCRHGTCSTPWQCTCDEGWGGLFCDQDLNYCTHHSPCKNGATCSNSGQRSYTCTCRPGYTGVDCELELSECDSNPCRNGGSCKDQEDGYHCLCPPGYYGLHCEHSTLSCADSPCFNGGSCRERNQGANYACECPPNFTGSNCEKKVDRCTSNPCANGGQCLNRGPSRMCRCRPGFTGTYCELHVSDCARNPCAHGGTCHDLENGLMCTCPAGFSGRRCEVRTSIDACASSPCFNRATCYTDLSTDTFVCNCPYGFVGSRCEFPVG

B1: 106H01 (VHH)
VHH: EVQLVESGGGLVQAGGSLRLSCAASGSTFSNYAMGWYRQAPGKQRELVVGISSDGSTHYADSAKGRFTISRDDAKNTVYLQMNSLKTEDTAVYYCYVPVKVAGLEYAYWGQGTQVTVSS
notes: also called DLLBII106H01
B1: binds [1]; binds [2].

B2: 00042 (VHH)
VHH: EVQLVESGGGLVQPGGSLRLSCAASGFTLDDYAIGWFRQAPGKEREGVSSIRDNDGSTYYADSVKGRFTISSDNSKNTVYLQMNSLRPEDTAVYYCAAVPAGRLRFGEQWYPLYEYDAWGQGTLVTVSS
With B2 the “IC50 (read off the curve)” value [3] was roughly 0.5 nM, the “IC50 (read off the curve)” value [4] was roughly 0.8 nM and the “IC50 (read off the curve)” value [5] was roughly 2 nM. For the same binder, the “IC50 (read off the curve)” value [6] was roughly 1 nM.

B3: 00938 (VHH)
VHH: B2 VHH with A24V, F27I, S50A, D53S, N54S, D55G, F106Y, L113I
With B3 the “IC50 (read off the curve)” value [7] was roughly 0.06 nM, the “IC50 (read off the curve)” value [8] was roughly 0.1 nM and the “IC50 (read off the curve)” value [9] was roughly 0.04 nM.

B4: DLLBII56C04 (VHH)
VHH: EVQLVESGGGLVQPGGSLRLSCTASGFTFDVYAIGWFRQAPGKEPEGISCISSSGSITYYADSVKGRFTTSRDSAKNTVYLQMNSLKPEDTAVYYCATPGIAACRGIHYWGQGTQVTVSS
notes: not shown: C-terminal c-myc and His6 tags
With B4 the binding result [10] was “binds” and the “EC50 (read off the curve)” value [11] was roughly 5 nM.

B5: 00050 (VHH)
VHH: EVQLVESGGGLVQPGGSLRLSCAASGFTFDDYALGWFRQAPGKEREGVSCIRCSDGSTYYADSVKGRFTISSDNSKNTVYLQMNSLRPEDTAVYYCAASIVPRSKLEPYEYDAWGQGTLVTVSS
In the case of B5, the “IC50 (read off the curve)” value [12] is reported as roughly 6 nM, the “IC50 (read off the curve)” value [13] is reported as roughly 9 nM and the “IC50 (read off the curve)” value [14] is reported as roughly 6 nM.

B6: 00921 (VHH)
VHH: B5 VHH with D55G
B6 was tested, and the “IC50 (read off the curve)” value [15] was roughly 30 nM, the “IC50 (read off the curve)” value [16] was roughly 40 nM and the “IC50 (read off the curve)” value [17] was roughly 20 nM.

B7: DLLBII133A09 (VHH)
VHH: EVQLVESGGGLVQPGGSLRLSCAASGFTFGSYDMSWVRRSPGKGPEWVSAINSGGGSTYYADYVKGRFTISRDNAKNTLYLQMNSLKPEDTAVYYCAADRYIWARQGEYWGAYAYDYWGQGTQVTVSS
notes: as for B4
With B7 the “EC50 (read off the curve)” value [18] was roughly 0.9 nM, the binding result [19] was “no binding” and the binding result [20] was “no binding”. The “EC50 (read off the curve)” value [21] was roughly 0.7 nM.

B8: 00045 (VHH)
VHH: EVQLVESGGGLVQPGGSLRLSCAASGFALDYYAIGWFRQAPGKEREGVSCISSSDGITYYADSVKGRFTISRDNSKNTVYLQMNSLRPEDTAVYYCATDSGGYIDYDCMGLGYDYWGQGTLVTVSS
For B8, the “IC50 (read off the curve)” value [3] was roughly 0.2 nM and the “IC50 (read off the curve)” value [6] was roughly 0.2 nM.
